By KM is commonly meant the substrate concentration at which the rate is half of its maximum.

Data set [1] concerns PKCα-S9.
Data set [2] relates to PKCα-S10.
For data set [3], the system named is PKCα-S1.

Chain of PKCθ (Q04759 whole entry): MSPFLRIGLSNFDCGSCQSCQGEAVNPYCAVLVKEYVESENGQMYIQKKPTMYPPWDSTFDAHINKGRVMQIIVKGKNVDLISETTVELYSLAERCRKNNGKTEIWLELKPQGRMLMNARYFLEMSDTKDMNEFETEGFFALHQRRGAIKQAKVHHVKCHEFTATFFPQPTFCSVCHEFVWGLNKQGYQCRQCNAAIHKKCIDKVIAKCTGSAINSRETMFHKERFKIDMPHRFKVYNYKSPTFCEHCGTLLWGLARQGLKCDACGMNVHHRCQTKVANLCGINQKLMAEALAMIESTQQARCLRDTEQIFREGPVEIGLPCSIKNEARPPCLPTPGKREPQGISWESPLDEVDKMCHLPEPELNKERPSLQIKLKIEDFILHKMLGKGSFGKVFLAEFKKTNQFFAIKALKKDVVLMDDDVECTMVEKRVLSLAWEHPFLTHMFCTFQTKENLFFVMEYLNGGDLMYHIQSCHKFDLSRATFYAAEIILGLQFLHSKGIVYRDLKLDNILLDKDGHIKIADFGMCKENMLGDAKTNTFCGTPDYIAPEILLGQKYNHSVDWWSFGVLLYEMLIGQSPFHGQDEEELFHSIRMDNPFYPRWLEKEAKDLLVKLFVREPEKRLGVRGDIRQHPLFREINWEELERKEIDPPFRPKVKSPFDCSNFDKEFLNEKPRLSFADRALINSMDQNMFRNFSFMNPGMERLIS

PKCα: in data set [1], the Michaelis constant (KM) turned out to be 0.093 µM, the Vmax (µmol min^-1 mg^-1) (µmol min^-1 mg^-1) stood at 1.8 and the Vmax/KM was 160000 min⁻¹ mg⁻¹. Also, in data set [2], the KM amounted to 0.12 µM, the Vmax (µmol min^-1 mg^-1) (µmol min^-1 mg^-1) was found to be 2.2 and the Vmax/KM turned out to be 149000 min⁻¹ mg⁻¹. Further, in data set [3], the KM is 8.6 µM, the Vmax (µmol min^-1 mg^-1) (µmol min^-1 mg^-1) is 5.9 and the Vmax/KM is 6200 min⁻¹ mg⁻¹.
As to PKCβI, the “phosphorylation activity (1 µM peptide, 2 ng kinase)” value in data set [2] was “PKCβI and PKCθ are slightly more active than PKCα”.
Same read-out and setting: then PKCβII, with “PKCβII and PKCγ have comparable activities to that of PKCα”; and PKCγ, with “PKCβII and PKCγ have comparable activities to that of PKCα”; and PKCδ, with “no activity is observed with PKCδ, PKCµ, and PKCν”.
In the case of PKCε, in data set [2], the “phosphorylation activity (1 µM peptide, 2 ng kinase)” value was “very little activity is detected with PKCε, PKCζ, PKCη and PKCι”.
Same read-out and setting: in the case of PKCη it was “very little activity is detected with PKCε, PKCζ, PKCη and PKCι”; in that of PKCθ, “PKCβI and PKCθ are slightly more active than PKCα”.

Values taken from US8586570.
